For one data set, the system named is Cc1cccc(O)c1O. In words: purified protein. The following applies: 0.1 M Tris-HCl pH 7.4, 0.1 mM MnCl2, 32.5 °C, 40 µg/mL enzyme, 0.2-1.2 mM substrate.
The test system of the next data set is CCc1cccc(O)c1O. The experiment in a line: purified protein. The following applies: 0.1 M Tris-HCl pH 7.4, 0.1 mM MnCl2, 32.5 °C, 20 µg/mL enzyme, 0.05-1.0 mM substrate.

The record followed here is article PMC8671467, “A novel Bacillus ligniniphilus catechol 2,3-dioxygenase shows unique substrate preference and metal requirement” (Scientific Reports, 2021).

“BLC23O (Halalkalibacterium ligniniphilum)”: in the data set on Cc1cccc(O)c1O, the Km came out at 418 ± 25 µM, the kcat turned out to be 0.2 ± 0.03 s⁻¹ and the kcat/Km is 480 M⁻¹ s⁻¹. In the data set on CCc1cccc(O)c1O, the Km was determined as 193 ± 17 µM, the kcat was 0.47 ± 0.09 s⁻¹ and the kcat/Km is 2400 M⁻¹ s⁻¹.
